The values below come from publication PMC7214622, “Function of P2X4 Receptors Is Directly Modulated by a 1:1 Stoichiometric Interaction With 5-HT3A Receptors” (Frontiers in Cellular Neuroscience, 2020).

The target in this assay is T1, rat P2X4 receptor with a C-terminal hemagglutinin (HA) tag (rat, UniProt P51577 1-388).
T1 construct: P2X4 subunit, rat (Rattus norvegicus), GenBank U47031.1; UniProt P51577 is printed for the rat P2X4 subunit in the modelling methods; The subunit ran at 70 kDa on SDS-PAGE, which the authors put down to glycosylation; also called P2X4 subunit; source: tsA201 cells, transfected (pcDNA3.1, PEI); Triton X-100 solubilised MEMBRANE fraction; eluted from anti-HA agarose beads with HA peptide; not …
T1 sequence (looked up): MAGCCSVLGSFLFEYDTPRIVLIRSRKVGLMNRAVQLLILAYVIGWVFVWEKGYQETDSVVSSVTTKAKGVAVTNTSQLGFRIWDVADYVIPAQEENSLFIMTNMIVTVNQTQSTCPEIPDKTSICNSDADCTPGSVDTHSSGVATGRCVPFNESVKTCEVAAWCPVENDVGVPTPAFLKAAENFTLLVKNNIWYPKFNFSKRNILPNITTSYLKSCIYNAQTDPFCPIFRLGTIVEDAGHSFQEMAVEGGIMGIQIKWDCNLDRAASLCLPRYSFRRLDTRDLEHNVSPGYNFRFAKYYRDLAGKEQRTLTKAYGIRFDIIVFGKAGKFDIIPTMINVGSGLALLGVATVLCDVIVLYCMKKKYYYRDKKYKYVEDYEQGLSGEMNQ
Put plainly: atomic force microscopy imaging; complexes co-purified by the HA tag from co-transfected tsA201 cells, adsorbed onto mica for 15 min, dried and imaged in intermittent contact mode; histograms of molecular volumes fitted by a double Gaussian; without ATP, or with 100 μM ATP for 30 min in solution before adsorption. The following applies: partners not purified.

B1: human 5-HT3A receptor with a C-terminal MYC/His-6 epitope tag (receptor, UniProt P46098 24-478, looked up)
chain: RRSRNTTRPALLRLSDYLLTNYRKGVRPVRDWRKPTTVSIDVIVYAILNVDEKNQVLTTYIWYRQYWTDEFLQWNPEDFDNITKLSIPTDSIWVPDILINEFVDVGKSPNIPYVYIRHQGEVQNYKPLQVVTACSLDIYNFPFDVQNCSLTFTSWLHTIQDINISLWRLPEKVKSDRSVFMNQGEWELLGVLPYFREFSMESSNYYAEMKFYVVIRRRPLFYVVSLLLPSIFLMVMDIVGFYLPPNSGERVSFKITLLLGYSVFLIIVSDTLPATAIGTPLIGVYFVVCMALLVISLAETIFIVRLVHKQDLQQPVPAWLRHLVLERIAWLLCLREQSTSQRPPATSQATKTDDCSAMGNHCSHMGGPQDFEKSPRDRCSPPPPPREASLAVCGLLQELSSIRQFLEKRDEIREVARDWLRVGSVLDKLLFHIYLLAVLAYSITLVMLWSIWQYA
notes: 5-HT3A subunit, human (Homo sapiens), GenBank AK304630.1; UniProt P46098 is printed for the human 5-HT3A subunit in the modelling methods; The subunit ran at 55 kDa on SDS-PAGE; also called 5-HT3A subunit; 5-HT3A-MYC/His6; source: tsA201 cells, transfected (pcDNA3.1, PEI); Triton X-100 solubilised MEMBRANE fraction; eluted from HisPur Ni-NTA agarose beads with 200 mM imidazole; not shown: MYC, …
With B1, the “stoichiometry N” value came out at 1.
